{"source": "patent US20100285988", "key": {"[1]": {"system": "βCTFΔ (Aβ17-23 deleted form of βCTF)"}, "[2]": {"system": "βCTF-FLAG (recombinant β-secretase cleaved APP C-terminal fragment)"}, "[3]": {"system": "Aβ17-23 (LVFFAED) peptide"}}}
{"substance": "γ-secretase (human; HeLa cell membrane / solubilized HeLa membrane; endogenous in HEK293 cells)", "values": [{"measurement": "Vmax", "setting": "[1]", "result": "Vmax values are 16±1 and 215±24 min^-1 µg^-1 for βCTF and βCTFΔ, respectively"}, {"measurement": "Vmax/Km or kcat/Km relative to βCTF", "setting": "[1]", "result": "is 42-fold greater than for the βCTF substrate"}, {"measurement": "apparent Km (Aβ40 production, ECL)", "setting": "[1]", "result": "0.26±0.09", "unit": "µM for βCTFA"}, {"measurement": "Vmax", "setting": "[2]", "result": "Vmax values are 16±1 and 215±24 min^-1 µg^-1 for βCTF and βCTFΔ, respectively"}, {"measurement": "apparent Km (Aβ40 production, ECL)", "setting": "[2]", "result": "the apparent Km is 0.47±0.09 µM for βCTF"}, {"measurement": "rate of γ-secretase hydrolysis (X40 product, ECL) relative to αCTF-FLAG", "setting": "[2]", "result": "The rate of γ-secretase hydrolysis of βCTF-FLAG is 12-fold greater than for hydrolysis of αCTF-FLAG"}, {"measurement": "potency on Notch cleavage relative to APP-derived substrates", "setting": "[3]", "result": "the potency of this peptide is 6-fold less potent in the proteolytic cleavage of Notch by γ-secretase than that of APP-derived substrates"}]}
